The values below come from patent US5747447.

In assay [1] the target is T1, vitronectin receptor (M21 melanoma cell attachment assay) (Homo sapiens (Human)), P06756.
T1 chain 1: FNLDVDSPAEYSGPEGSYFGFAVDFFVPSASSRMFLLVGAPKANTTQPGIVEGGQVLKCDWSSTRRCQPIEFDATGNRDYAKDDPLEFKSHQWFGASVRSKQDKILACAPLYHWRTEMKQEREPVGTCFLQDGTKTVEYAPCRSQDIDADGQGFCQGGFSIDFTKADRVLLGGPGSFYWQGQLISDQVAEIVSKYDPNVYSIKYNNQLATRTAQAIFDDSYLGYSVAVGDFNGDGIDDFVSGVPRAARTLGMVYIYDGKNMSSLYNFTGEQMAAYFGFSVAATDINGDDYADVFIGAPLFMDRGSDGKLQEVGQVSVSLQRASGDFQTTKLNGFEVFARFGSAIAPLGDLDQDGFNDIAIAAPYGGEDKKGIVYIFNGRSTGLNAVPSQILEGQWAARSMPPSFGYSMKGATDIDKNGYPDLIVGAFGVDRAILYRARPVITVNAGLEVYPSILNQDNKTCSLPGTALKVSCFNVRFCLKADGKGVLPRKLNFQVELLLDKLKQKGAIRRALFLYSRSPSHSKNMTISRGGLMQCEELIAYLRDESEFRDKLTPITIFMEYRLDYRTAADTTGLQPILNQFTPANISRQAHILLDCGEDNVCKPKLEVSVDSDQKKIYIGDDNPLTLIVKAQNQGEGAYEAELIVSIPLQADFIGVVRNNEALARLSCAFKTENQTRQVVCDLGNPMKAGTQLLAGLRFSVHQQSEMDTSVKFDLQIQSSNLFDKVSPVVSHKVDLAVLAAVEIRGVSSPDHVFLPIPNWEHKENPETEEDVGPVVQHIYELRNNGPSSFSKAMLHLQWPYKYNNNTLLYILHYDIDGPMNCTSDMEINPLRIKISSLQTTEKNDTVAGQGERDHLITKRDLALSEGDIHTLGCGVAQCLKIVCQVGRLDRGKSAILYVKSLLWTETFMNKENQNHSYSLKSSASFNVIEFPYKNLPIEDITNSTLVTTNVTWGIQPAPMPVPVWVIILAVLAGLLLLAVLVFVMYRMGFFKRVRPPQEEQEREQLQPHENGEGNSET
T1 chain 2: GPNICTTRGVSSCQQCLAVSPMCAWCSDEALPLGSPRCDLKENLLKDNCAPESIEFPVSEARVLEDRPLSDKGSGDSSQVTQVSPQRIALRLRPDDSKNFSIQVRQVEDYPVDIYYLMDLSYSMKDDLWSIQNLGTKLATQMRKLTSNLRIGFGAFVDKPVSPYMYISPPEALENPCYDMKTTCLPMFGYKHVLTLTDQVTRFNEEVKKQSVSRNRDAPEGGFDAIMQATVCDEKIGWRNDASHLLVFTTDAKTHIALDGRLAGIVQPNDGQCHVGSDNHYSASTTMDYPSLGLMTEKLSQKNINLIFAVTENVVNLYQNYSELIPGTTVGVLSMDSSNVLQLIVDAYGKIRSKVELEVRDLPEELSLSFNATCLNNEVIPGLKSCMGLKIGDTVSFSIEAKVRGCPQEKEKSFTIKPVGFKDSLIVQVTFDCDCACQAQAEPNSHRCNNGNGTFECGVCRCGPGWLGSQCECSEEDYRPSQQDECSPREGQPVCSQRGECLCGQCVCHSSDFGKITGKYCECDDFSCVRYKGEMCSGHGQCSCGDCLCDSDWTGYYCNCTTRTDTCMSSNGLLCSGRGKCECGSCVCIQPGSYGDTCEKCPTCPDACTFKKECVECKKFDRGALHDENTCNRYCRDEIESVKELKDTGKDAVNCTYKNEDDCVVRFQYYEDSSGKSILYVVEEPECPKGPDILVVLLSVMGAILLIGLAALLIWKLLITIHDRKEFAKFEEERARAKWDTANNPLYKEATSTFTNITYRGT

Assay [2] addresses GP IIb-IIIa on human platelets (human), P08514.

In assay [1], GCGKGDWPCA (modifications not checked) [analog #3] came in with an M21 cell attachment to vitronectin above 60 µM.
In assay [2], GCKGDWPCA (modifications not checked) [analog #4] gave an Appr, IC50 (uM): inhibition of ADP-induced human platelet aggregation of 5 µM.
On the same count and under the same terms, with CGKGDWPC (modifications not checked) [analog #5] the figure was 5 µM.
